Target: HIV-1 envelope glycoprotein (Env) of the Tier 1B subtype B strain BaL.01, cell surface-expressed (HIV-1 (subtype B, strain BaL.01))

recombinant two-domain sCD4 (sCD4-183_avi_his.bio) (domain or fragment)
sCD4 concentration at the peak of the basal epitope exposure curve of V3 crown mAb 1-79 (antibody staining of Env-expressing cells, flow cytometry, increasing sCD4): 5 µM

From paper PMC6351000
